Test results taken from patent publication US20120238038, “PEPTIDE BINDING TO METHYLATED DNA” (published 2012).

B1: unmethylated target DNA (dsDNA)
DNA 1: GGGGCGGGGCC
DNA 2: GGCCCCGCCCC
B2: methylated target DNA (dsDNA)
DNA 1: GGGGCGGGGCC
DNA 2: GGCCCCGCCCC
modifications: 5mC at position 5 of G chain and position 6 of C chain

Biological target: peptide F (two-zinc-finger peptide, X = phenylalanine) (Artificial Sequence)
Experiment: EMSA; 100 uM ZnCl2, 100 mM NaCl, 4 C
Details: protein: synthetic; tags: none; chemically synthesized (Fmoc SPPS), C-terminal amide; label: 5'-32P on G chain
Protocol: These bands obtained on the gel were quantified using Image Gauge software (FUJIFILM Corporation, ver. 4.01). The ratio of DNA bound to the peptide ([bound]/[bound]+[free]) was calculated from the band intensity at each peptide concentration; using this and the concentration of the peptide, the dissociation constant between the peptide and the DNA was calculated from the calculation equation (2) below.

Sequence of peptide F (two-zinc-finger peptide, X = phenylalanine) (Artificial Sequence) (chain, as listed by the source): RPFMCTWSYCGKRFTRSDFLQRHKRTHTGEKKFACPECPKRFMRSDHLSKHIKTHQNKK

Row | Binder | Kd [µM]
1 | B1 | 2.1
2 | B2 | 5.58
